Changes are numbered by the printed parent chain.

For the assay, the target named is human cMET (human, UniProt P08581 25-932). In words: phage TRF on cMET.
human cMET, sequence (P08581 25-932 limits assumed): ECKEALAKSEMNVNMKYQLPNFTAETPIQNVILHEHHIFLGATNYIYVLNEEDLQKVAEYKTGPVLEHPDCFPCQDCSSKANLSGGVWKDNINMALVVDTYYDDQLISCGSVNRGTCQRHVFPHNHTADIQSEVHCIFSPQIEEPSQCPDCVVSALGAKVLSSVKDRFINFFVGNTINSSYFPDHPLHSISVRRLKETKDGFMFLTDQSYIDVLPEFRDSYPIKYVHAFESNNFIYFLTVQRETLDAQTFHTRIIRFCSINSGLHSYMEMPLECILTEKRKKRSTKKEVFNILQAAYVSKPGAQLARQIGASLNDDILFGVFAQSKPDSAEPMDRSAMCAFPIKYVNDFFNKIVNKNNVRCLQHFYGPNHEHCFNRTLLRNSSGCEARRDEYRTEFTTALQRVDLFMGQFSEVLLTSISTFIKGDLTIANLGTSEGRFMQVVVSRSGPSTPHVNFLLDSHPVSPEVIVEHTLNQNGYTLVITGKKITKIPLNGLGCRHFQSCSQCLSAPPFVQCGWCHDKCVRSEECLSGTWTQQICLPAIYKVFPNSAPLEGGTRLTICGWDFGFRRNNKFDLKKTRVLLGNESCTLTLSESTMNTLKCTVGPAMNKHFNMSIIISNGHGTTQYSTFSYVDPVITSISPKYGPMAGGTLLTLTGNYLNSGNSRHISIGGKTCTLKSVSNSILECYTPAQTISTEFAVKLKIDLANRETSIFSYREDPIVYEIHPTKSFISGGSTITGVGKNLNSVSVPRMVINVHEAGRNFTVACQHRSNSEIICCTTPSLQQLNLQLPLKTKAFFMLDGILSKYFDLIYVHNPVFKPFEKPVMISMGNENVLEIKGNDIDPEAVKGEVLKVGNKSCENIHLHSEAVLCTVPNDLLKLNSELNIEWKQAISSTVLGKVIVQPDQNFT

B1: KB_A12_cMET_E11 (scFv, V domains shown)
VH: EVQLVESGGGLVRPGGSLRLSCAASGFTFSSYAMSWVRQAPGKGLEWVSAISGSGGSTYYADSVKGRFTISRDNTKNSLYLQMTSLRADDTAFYYCVKDFGPGYGTGWFDYWGPGTLVTVSS
VL: AVNWYQQLPGKAPKLLIYAAGRCAKKSGTGRCKQDSDCLAGCVCGPNGFCGANSGVSDRFSAAKSGTSASLAINGLRSEDEADYYCAAWDDSLNGYVFGTGTKLTVLG
On to B1, for which the TRF signal stood at 158000.

B2: KB_A12_cMET_F10 (scFv, V domains shown)
VH: B1 VH
VL: AVNWYQQLPGKAPKLLIYAAGRCRSLMSGTGRCKQDSDCLAGCVCGPNGFCGANSGVSDRFSAAKSGTSASLAINGLRSEDEADYYCAAWDDSLNGYVFGTGTKLTVLG
B2 yielded a TRF signal of 51300.

B3: KB_A12_cMET_H08 (scFv, V domains shown)
VH: B1 VH
VL: B2 VL with R24Q, S25T, L26G, M27R
As for B3, the TRF signal stood at 6730.

B4: KB_A12_cMET_F02 (scFv, V domains shown)
VH: B1 VH
VL: B1 VL with A24G, K25R, K26A
For B4, the TRF signal is 98500.

B5: KB_A12_cMET_G10 (scFv, V domains shown)
VH: B1 VH
VL: B1 VL with A24E, K26H
As for B5, the TRF signal was 64800.

B6: KB_A12_cMET_G06 (scFv, V domains shown)
VH: B1 VH
VL: B1 VL with A24N, K26S, S27G
B6 registered a TRF signal of 62100.

B7: KB_A12_cMET_E02 (scFv, V domains shown)
VH: B1 VH
VL: B1 VL with A24R, T29A, G30N
In the case of B7, the TRF signal turned out to be 9480.

B8: KB_A12_cMET_H01 (scFv, V domains shown)
VH: B1 VH
VL: B1 VL with A24H, K25R, K26M
As for B8, the TRF signal came to 132000.

B9: KB_A12_cMET_E01 (scFv, V domains shown)
VH: B1 VH
VL: B1 VL with A24N, K25L, K26T
The molecule B9 displayed a TRF signal of 22400.

B10: KB_A12_cMET_H02 (scFv, V domains shown)
VH: B1 VH
VL: B1 VL with K26R, S27T
Molecule B10 had a TRF signal of 35400.

B11: KB_A12_cMET_F06 (scFv, V domains shown)
VH: B1 VH
VL: B1 VL with A24P, K25H, K26Q, S27T
B11 yielded a TRF signal of 56200.

B12: KB_A12_cMET_H04 (scFv, V domains shown)
VH: B1 VH
VL: B1 VL with A24P, K25Q, K26M, S27T
In turn, B12 showed a TRF signal of 113000.

B13: KB_A12_cMET_F12 (scFv, V domains shown)
VH: B1 VH
VL: B1 VL with A24K, K25A, K26Q, T29S
As for B13, the TRF signal was found to be 119000.

B14: KB_A12_cMET_E05 (scFv, V domains shown)
VH: B1 VH
VL: B1 VL with A24D, K25R, S27A
The molecule B14 came in with a TRF signal of 116000.

B15: KB_A12_cMET_G07 (scFv, V domains shown)
VH: B1 VH
VL: B1 VL with A24R, K25A, K26S
On to B15, for which the TRF signal stood at 58000.

B16: KB_A12_cMET_F05 (scFv, V domains shown)
VH: B1 VH
VL: B2 VL with R24K, S25R, T30A
As for B16, the TRF signal came out at 59600.

B17: KB_A12_cMET_E12 (scFv, V domains shown)
VH: B1 VH
VL: B1 VL with K26R
As to B17, the TRF signal amounted to 95900.

B18: KB_A12_cMET_G08 (scFv, V domains shown)
VH: B1 VH
VL: B1 VL with K25R, K26L, T29S
B18: the TRF signal came to 27900.

B19: KB_A12_cMET_E07 (scFv, V domains shown)
VH: B1 VH
VL: B2 VL with R24P, S25K, L26R, M27H, S28T
In turn, B19 came in with a TRF signal of 95300.

B20: KB_A12_cMET_G01 (scFv, V domains shown)
VH: B1 VH
VL: B1 VL with A24Q, K25R, K26Q
Turning to B20, the TRF signal amounted to 98900.

B21: KB_A12_cMET_H05 (scFv, V domains shown)
VH: B1 VH
VL: B1 VL with A24N, K25R, K26A, T29A
Molecule B21 yielded a TRF signal of 153000.

B22: KB_A12_cMET_H03 (scFv, V domains shown)
VH: B1 VH
VL: B1 VL with A24R, K25G, K26M, S27T, T29V
In the case of B22, the TRF signal is 54200.

B23: KB_A12_cMET_E04 (scFv, V domains shown)
VH: B1 VH
VL: B1 VL with A24G, K25H, K26L
Molecule B23 registered a TRF signal of 41300.

Source of the values: patent publication US20230331827A1 (MAXION THERAPEUTICS, published 2023).
